Results on eleven molecules are retold here after patent US20260167699A1 (Chugai, published 2026).

What all share (experiment): SPR; % of GpH7-A5/GpH7-B3/GpL16-k0
In test [1] the target is T1, FcγRIIa(H) extracellular domain with C-terminal His tag (human, UniProt P12318 34-217).
T1 construct: extracellular domain; H131 allotype; also called 2aH; CD32
T1 sequence: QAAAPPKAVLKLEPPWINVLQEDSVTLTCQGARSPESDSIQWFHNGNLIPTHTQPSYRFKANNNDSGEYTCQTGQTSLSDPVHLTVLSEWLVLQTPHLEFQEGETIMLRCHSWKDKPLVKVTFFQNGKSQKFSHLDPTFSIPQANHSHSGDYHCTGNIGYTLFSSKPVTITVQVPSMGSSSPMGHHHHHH

Test [2] deals with T2, FcγRIIb extracellular domain with C-terminal His tag (human, UniProt P31994 43-217).
T2 construct: extracellular domain; also called 2b; CD32
T2 sequence: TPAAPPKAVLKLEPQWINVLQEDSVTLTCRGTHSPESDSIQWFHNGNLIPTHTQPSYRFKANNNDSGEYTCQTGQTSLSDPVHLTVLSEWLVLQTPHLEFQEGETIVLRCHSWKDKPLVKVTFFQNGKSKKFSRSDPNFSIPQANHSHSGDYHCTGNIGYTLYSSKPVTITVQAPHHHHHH

Test [3] addresses T3, FcγRIIa(R) extracellular domain with C-terminal His tag (human, UniProt P12318 34-217).
T3 construct: extracellular domain; R131 allotype; also called 2aR; CD32
T3 sequence: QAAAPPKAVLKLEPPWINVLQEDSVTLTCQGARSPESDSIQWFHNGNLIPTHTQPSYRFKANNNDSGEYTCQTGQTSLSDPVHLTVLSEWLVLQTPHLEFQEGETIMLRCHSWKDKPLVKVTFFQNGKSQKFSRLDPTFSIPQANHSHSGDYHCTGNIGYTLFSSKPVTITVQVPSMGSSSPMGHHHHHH

Test [4] concerns the target T4, FcγRIIIa extracellular domain with C-terminal His tag (human, UniProt P08637 17-208).
T4 construct: extracellular domain; also called 3a; CD16

The target of test [5] is T5, FcγRIa extracellular domain with C-terminal His tag (human, UniProt P12314 16-292).
T5 construct: extracellular domain; also called 1a; CD64
T5 sequence (P12314 other isoform, or with tags, fused parts or gaps): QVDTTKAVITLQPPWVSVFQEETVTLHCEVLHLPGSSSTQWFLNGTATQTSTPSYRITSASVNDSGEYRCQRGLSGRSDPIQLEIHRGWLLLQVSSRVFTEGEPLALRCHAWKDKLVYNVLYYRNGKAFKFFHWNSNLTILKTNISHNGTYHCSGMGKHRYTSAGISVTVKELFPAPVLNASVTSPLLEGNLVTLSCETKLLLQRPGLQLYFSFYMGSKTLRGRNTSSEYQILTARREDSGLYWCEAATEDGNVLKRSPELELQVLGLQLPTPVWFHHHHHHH

T4 sequence (P08637 other isoform, or with tags, fused parts or gaps): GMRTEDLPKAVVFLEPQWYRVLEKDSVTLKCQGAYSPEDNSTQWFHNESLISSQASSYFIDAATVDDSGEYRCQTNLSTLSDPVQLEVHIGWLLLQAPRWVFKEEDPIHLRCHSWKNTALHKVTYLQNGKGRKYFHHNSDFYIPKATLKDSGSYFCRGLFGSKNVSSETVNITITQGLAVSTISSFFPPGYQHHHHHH

B1: GpH7-A5/GpH7-B3 variant I336_04F/GpL16-k0 (antibody, human IgG1, kappa)
heavy 1: not shown
heavy 2: not shown
light: DIVMTQSPLSLPVTPGEPASISCQASESLVHSNRNTYLHWYLQKPGQSPQLLIYKVSNRFSGVPDRFSGSGSGTDFTLKISRVEAEDVGVYYCSQNTHVPPTFGQGTKVEIERTVAAPSVFIFPPSDEQLKSGTASVVCLLNNFYPREAKVQWKVDNALQSGNSQESVTEQDSKDSTYSLSSTLTLSKADYEKHKVYACEVTHQGLSSPVTKSFNRGEC
notes: heterodimerized IgG1 (He Ab), mutation in one H chain only; also called He Ab
On to B1, for which the “He/Con 2aH” value in test [1] was found to be 98.3%. Also, in test [2], the “He/Con 2b” value was found to be 99.6%. Moreover, the “He/Con 2aR” value in test [3] came to 105%. The “He/Con 3a” value in test [4] came to 93.2%. In addition, the “He/Con 1a” value in test [5] was determined as 109%.

B2: GpH7-A5/GpH7-B3 variant I336_14T/GpL16-k0 (antibody, human IgG1, kappa)
heavy 1: not shown
heavy 2: not shown
light: DIVMTQSPLSLPVTPGEPASISCQASESLVHSNRNTYLHWYLQKPGQSPQLLIYKVSNRFSGVPDRFSGSGSGTDFTLKISRVEAEDVGVYYCSQNTHVPPTFGQGTKVEIERTVAAPSVFIFPPSDEQLKSGTASVVCLLNNFYPREAKVQWKVDNALQSGNSQESVTEQDSKDSTYSLSSTLTLSKADYEKHKVYACEVTHQGLSSPVTKSFNRGEC
notes: as for B1
Turning to B2, the “He/Con 2aH” value in test [1] was determined as 103%. The “He/Con 2b” value in test [2] worked out at 97.8%. Also, the “He/Con 2aR” value in test [3] was found to be 102%. In addition, in test [4], the “He/Con 3a” value was found to be 103%. Moreover, in test [5], the “He/Con 1a” value was 108%.

B3: GpH7-A5/GpH7-B3 variant I336_08L/GpL16-k0 (antibody, human IgG1, kappa)
heavy 1: not shown
heavy 2: not shown
light: DIVMTQSPLSLPVTPGEPASISCQASESLVHSNRNTYLHWYLQKPGQSPQLLIYKVSNRFSGVPDRFSGSGSGTDFTLKISRVEAEDVGVYYCSQNTHVPPTFGQGTKVEIERTVAAPSVFIFPPSDEQLKSGTASVVCLLNNFYPREAKVQWKVDNALQSGNSQESVTEQDSKDSTYSLSSTLTLSKADYEKHKVYACEVTHQGLSSPVTKSFNRGEC
notes: as for B1
In the case of B3, the “He/Con 2aH” value in test [1] was found to be 109%. Moreover, the “He/Con 2b” value in test [2] was determined as 117%. Moreover, the “He/Con 2aR” value in test [3] turned out to be 116%. Also, the “He/Con 3a” value in test [4] was found to be 102%. For the same molecule, the “He/Con 1a” value in test [5] came out at 111%.

B4: GpH7-A5/GpH7-B3 variant I336_10E/GpL16-k0 (antibody, human IgG1, kappa)
heavy 1: not shown
heavy 2: not shown
light: DIVMTQSPLSLPVTPGEPASISCQASESLVHSNRNTYLHWYLQKPGQSPQLLIYKVSNRFSGVPDRFSGSGSGTDFTLKISRVEAEDVGVYYCSQNTHVPPTFGQGTKVEIERTVAAPSVFIFPPSDEQLKSGTASVVCLLNNFYPREAKVQWKVDNALQSGNSQESVTEQDSKDSTYSLSSTLTLSKADYEKHKVYACEVTHQGLSSPVTKSFNRGEC
notes: as for B1
Consider B4, for which the “He/Con 2aH” value in test [1] was 105%. Moreover, the “He/Con 2b” value in test [2] was determined as 98.2%. In test [3], the “He/Con 2aR” value was 104%. Moreover, the “He/Con 3a” value in test [4] is 114%. Further, the “He/Con 1a” value in test [5] was determined as 111%.

B5: GpH7-A5/GpH7-B3 variant I336_06M/GpL16-k0 (antibody, human IgG1, kappa)
heavy 1: not shown
heavy 2: not shown
light: DIVMTQSPLSLPVTPGEPASISCQASESLVHSNRNTYLHWYLQKPGQSPQLLIYKVSNRFSGVPDRFSGSGSGTDFTLKISRVEAEDVGVYYCSQNTHVPPTFGQGTKVEIERTVAAPSVFIFPPSDEQLKSGTASVVCLLNNFYPREAKVQWKVDNALQSGNSQESVTEQDSKDSTYSLSSTLTLSKADYEKHKVYACEVTHQGLSSPVTKSFNRGEC
notes: as for B1
With B5, the “He/Con 2aH” value in test [1] was found to be 110%. For the same molecule, the “He/Con 2b” value in test [2] is 111%. Moreover, the “He/Con 2aR” value in test [3] came out at 112%. Also, the “He/Con 3a” value in test [4] worked out at 104%. Besides, the “He/Con 1a” value in test [5] worked out at 112%.

B6: GpH7-A5/GpH7-B3 variant I336_09D/GpL16-k0 (antibody, human IgG1, kappa)
heavy 1: not shown
heavy 2: not shown
light: DIVMTQSPLSLPVTPGEPASISCQASESLVHSNRNTYLHWYLQKPGQSPQLLIYKVSNRFSGVPDRFSGSGSGTDFTLKISRVEAEDVGVYYCSQNTHVPPTFGQGTKVEIERTVAAPSVFIFPPSDEQLKSGTASVVCLLNNFYPREAKVQWKVDNALQSGNSQESVTEQDSKDSTYSLSSTLTLSKADYEKHKVYACEVTHQGLSSPVTKSFNRGEC
notes: as for B1
With B6, in test [1], the “He/Con 2aH” value turned out to be 100%. For the same molecule, the “He/Con 2b” value in test [2] is 101%. Besides, the “He/Con 2aR” value in test [3] was 104%. In test [4], the “He/Con 3a” value amounted to 102%. For the same molecule, in test [5], the “He/Con 1a” value stood at 107%.

B7: GpH7-A5/GpH7-B3 variant I336_16H/GpL16-k0 (antibody, human IgG1, kappa)
heavy 1: not shown
heavy 2: not shown
light: DIVMTQSPLSLPVTPGEPASISCQASESLVHSNRNTYLHWYLQKPGQSPQLLIYKVSNRFSGVPDRFSGSGSGTDFTLKISRVEAEDVGVYYCSQNTHVPPTFGQGTKVEIERTVAAPSVFIFPPSDEQLKSGTASVVCLLNNFYPREAKVQWKVDNALQSGNSQESVTEQDSKDSTYSLSSTLTLSKADYEKHKVYACEVTHQGLSSPVTKSFNRGEC
notes: as for B1
With B7, in test [1], the “He/Con 2aH” value was 97.4%. In addition, the “He/Con 2b” value in test [2] was found to be 93.8%. Also, in test [3], the “He/Con 2aR” value came to 99.1%. For the same molecule, in test [4], the “He/Con 3a” value worked out at 92.8%. The “He/Con 1a” value in test [5] came to 104%.

B8: GpH7-A5/GpH7-B3 variant I336_15Y/GpL16-k0 (antibody, human IgG1, kappa)
heavy 1: not shown
heavy 2: not shown
light: DIVMTQSPLSLPVTPGEPASISCQASESLVHSNRNTYLHWYLQKPGQSPQLLIYKVSNRFSGVPDRFSGSGSGTDFTLKISRVEAEDVGVYYCSQNTHVPPTFGQGTKVEIERTVAAPSVFIFPPSDEQLKSGTASVVCLLNNFYPREAKVQWKVDNALQSGNSQESVTEQDSKDSTYSLSSTLTLSKADYEKHKVYACEVTHQGLSSPVTKSFNRGEC
notes: as for B1
In the case of B8, the “He/Con 2aH” value in test [1] amounted to 84.6%. Further, in test [2], the “He/Con 2b” value stood at 74.5%. Besides, in test [3], the “He/Con 2aR” value came to 83.1%. In addition, the “He/Con 3a” value in test [4] worked out at 83.4%. For the same molecule, in test [5], the “He/Con 1a” value was 106%.

B9: GpH7-A5/GpH7-B3 variant I336_13S/GpL16-k0 (antibody, human IgG1, kappa)
heavy 1: not shown
heavy 2: not shown
light: DIVMTQSPLSLPVTPGEPASISCQASESLVHSNRNTYLHWYLQKPGQSPQLLIYKVSNRFSGVPDRFSGSGSGTDFTLKISRVEAEDVGVYYCSQNTHVPPTFGQGTKVEIERTVAAPSVFIFPPSDEQLKSGTASVVCLLNNFYPREAKVQWKVDNALQSGNSQESVTEQDSKDSTYSLSSTLTLSKADYEKHKVYACEVTHQGLSSPVTKSFNRGEC
notes: as for B1
With B9, the “He/Con 2aH” value in test [1] was 101%. In test [2], the “He/Con 2b” value is 91.5%. Besides, in test [3], the “He/Con 2aR” value is 97.4%. Further, in test [4], the “He/Con 3a” value worked out at 97.1%. Moreover, the “He/Con 1a” value in test [5] was 106%.

B10: GpH7-A5/GpH7-B3 variant I336_11K/GpL16-k0 (antibody, human IgG1, kappa)
heavy 1: not shown
heavy 2: not shown
light: DIVMTQSPLSLPVTPGEPASISCQASESLVHSNRNTYLHWYLQKPGQSPQLLIYKVSNRFSGVPDRFSGSGSGTDFTLKISRVEAEDVGVYYCSQNTHVPPTFGQGTKVEIERTVAAPSVFIFPPSDEQLKSGTASVVCLLNNFYPREAKVQWKVDNALQSGNSQESVTEQDSKDSTYSLSSTLTLSKADYEKHKVYACEVTHQGLSSPVTKSFNRGEC
notes: as for B1
In the case of B10, in test [1], the “He/Con 2aH” value is 103%. Also, the “He/Con 2b” value in test [2] turned out to be 98.7%. In addition, the “He/Con 2aR” value in test [3] was found to be 104%. The “He/Con 3a” value in test [4] came to 94.4%. Besides, the “He/Con 1a” value in test [5] is 109%.

B11: GpH7-A5/GpH7-B3 variant I336_12R/GpL16-k0 (antibody, human IgG1, kappa)
heavy 1: not shown
heavy 2: not shown
light: DIVMTQSPLSLPVTPGEPASISCQASESLVHSNRNTYLHWYLQKPGQSPQLLIYKVSNRFSGVPDRFSGSGSGTDFTLKISRVEAEDVGVYYCSQNTHVPPTFGQGTKVEIERTVAAPSVFIFPPSDEQLKSGTASVVCLLNNFYPREAKVQWKVDNALQSGNSQESVTEQDSKDSTYSLSSTLTLSKADYEKHKVYACEVTHQGLSSPVTKSFNRGEC
notes: as for B1
Regarding B11, the “He/Con 2aH” value in test [1] was 104%. Moreover, the “He/Con 2b” value in test [2] is 101%. The “He/Con 2aR” value in test [3] amounted to 104%. Also, the “He/Con 3a” value in test [4] came to 88.8%. Also, in test [5], the “He/Con 1a” value is 105%.
